Laboratory results taken from patent publication US20080044436A1, “Method for Screening and Compositions for Treating Cancers” (priority 2004, published 2008).

Experiments:
TReP-132 mRNA = experiment: Quantitative RT-PCR of TReP-132 mRNA in T47-D cells; assay type: cell-based, human; details: 30 nM progesterone, 48 hours of exposure
Method: Total RNA from T47-D cells treated or not with progesterone was reverse transcribed and TReP-132 transcript levels were measured by quantitative RT-PCR as described in Gizard et al. (2004) using primers specific for […] and [NT]). […] Transfection was carried out by using the GeneSilencer reagent (Gene Therapy Systems, San Diego, USA) as directed by the manufacturer. Transfection efficiency was verified by FACS analysis (Fluorescence-Activated Cell Sorting) (see below). […] Statistical analyses were carried out with the nonparametric Kruskal-Wallis test.

HeLa cells = experiment: Cell proliferation of HeLa Tet-off cells with inducible TReP-132 (HTO-GFP/TReP-132); assay type: cell-based, human; details: HTO-GFP/TReP-132 cells, Dox removed, after 4 days of culture; with Dox about 16 hours
Text: HeLa Tet-off cells expressing the tTA transactivator under the control of tetracycline or doxycycline (Dox) (Clontech Laboratories, Palo Alto, Calif.) were stably transfected with the pBI-EGFP-TReP-132 vector or the pBI-EGFP control vector. In order to select stably transfected cells, the pcDNA6 plasmid (Invitrogen, Ontario, CA) containing the blasticidin resistance gene was cotransfected at a ratio of 1:50. For these transfections, the cells were first seeded in 6-well plates at an initial density of 1×10^5 cells per well, incubated for 24 hours, then transfected with ExGen 500 (MBI Fermentas, Flamborough, Ontario, CA) at a ratio of 5 μl of ExGen 500 for a total of 1 μg of plasmid such as described hereinabove in the section “Colony formation assays”. 48 hours post-transfection, cells were selected for 2 weeks with blasticidin (Sigma-Aldrich CA Ltd.). Clearly visible colonies were then were picked and subcloned on 12-well plates to enable growth. […]
The cell proliferation rate was determined by the cellular DNA content using the fluorochorome DABA ([…]). […] Fluorescence was measured on a Perkin-Elmer LS-2B Filter Fluorimeter at an excitation wavelength of 400 nm and an emission wavelength of 508 nm. The DNA content was calculated from a standard curve of known quantities of salmon sperm DNA.

cyclin D1/CDK6 = experiment: In vitro kinase assay of immunoprecipitated cyclin D1/CDK6 (pRb substrate); assay type: biochemical, human; details: TReP-132 induced for 48 hours in HTO-GFP/TReP-132 cells
Text: FIG. 9A: Kinase activities of each immunoprecipitated cyclin or CDK were quantified using pRb as substrate to measure cyclin D1/CDK6 activity, or histone H1 to measure cyclin A/CDK2 activity. The levels of phosphorylation of histone H1 or pRb in induced HTO cells (HeLa Tet Off) are expressed in relation to the levels in non-induced HTO cells (corresponding to level 1.0).
Cells were washed twice with cold PBS (Phosphate Buffered Saline), then harvested either in cold RIPA buffer (1×PBS, 1% Nonidet P-40, 0.5% sodium deoxycholate, 0.1% SDS, phosphatase and protease inhibitors) for co-immunoprecipitation analysis, or in lysis buffer (50 mM Tris, pH 8.0, 0.1% IGEPAL (Sigma)) for kinase assays. […] The blots were then visualized with ECL reagent and quantified with SCANWISE and Perfect-IMAGE V-5.3 software (CLARA VISION, France).
The kinase activities on histone H1 or Rb protein in the immunoprecipitates were measured as follows: the immunoprecipitates were first washed once with 1 ml of assay buffer (50 mM Tris-HCl, pH 7.4, 10 mM MgCl2, 1 mM dithiothreitol (DTT)), then resuspended in 20 μl of assay buffer containing 1 mg/ml casein (Sigma) and 1 μg of histone H1 or Rb protein (769) (sc-4112) as substrate. […]
The reaction was stopped by addition of 15 μl of electrophoresis buffer (3×). […] Phosphorylated Rb and histones were quantified by densitometry.

pRb = experiment: Western blot of pRb phosphorylation in HTO cells; assay type: cell-based, human; details: HTO-GFP/TReP-132 cells after Dox removal, almost undetectable at 72 hours
Method: FIG. 9B: Protein extracts (20 μg) of HTO cells expressing GFP or GFP and TReP-132 under the control of doxycycline, incubated or not with dox for the indicated times, were analyzed by western blot using anti-pRb antibodies directed against all pRb forms (hyperphopshorylated, phosphorylated and hypophosphorylated) or only against pRb phosphorylated at Ser 780, a target residue of cyclin D1/CDK4.
Cells were washed twice with cold PBS (Phosphate Buffered Saline), then harvested either in cold RIPA buffer (1×PBS, 1% Nonidet P-40, 0.5% sodium deoxycholate, 0.1% SDS, phosphatase and protease inhibitors) for co-immunoprecipitation analysis, or in lysis buffer (50 mM Tris, pH 8.0, 0.1% IGEPAL (Sigma)) for kinase assays. The lysates were incubated for 30 min on ice and cell debris was eliminated by centrifugation. The extracts were then aliquoted and stored at −80° C. For western blot analysis, RIPA or lysate buffer was used. For immunoprecipitations, whole cell lysates (1 mg) in RIPA buffer were preincubated with 0.1 μg of mouse or rabbit IgG and 20 μl of protein A-Sepharose beads (Amersham Biosciences, Uppsala, Sweden) for 30 min at 4° C. […] The blots were then visualized with ECL reagent and quantified with SCANWISE and Perfect-IMAGE V-5.3 software (CLARA VISION, France).

## CC(=O)[C@H]1CC[C@H]2[C@@H]3CCC4=CC(=O)CC[C@]4(C)[C@H]3CC[C@]12C [progesterone, reference compound]
TReP-132 mRNA
  TReP-132 mRNA levels, peak increase: 3 fold

B1: TReP-132: Transcriptional Regulating Protein of 132 kDa, polypeptide comprising SEQ ID NO: 2; here expressed in cells from vectors (protein)
chain: MGDQQLYKTNHVAHGSENLFYQQPPLGVHSGLNHNYGNAVTGGGMDAPQASPISPHFPQDTRDGLGLPVGSKNLGQMDTSRQGGWGSHAGPGNHVQLRGNLANSNMMWGAPAQAEPTDGYQYTYSQASEIRTQKLTSGVLHKLDSFTQVFANQNLRIQVNNMAQVLHTQSAVMDGAPDSALRQLLSQKPMEPPAPAIPSRYQQVPQQPHPGFTGGLSKPALQVGQHPTQGHLYYDYQQPLAQVPVQGGQPLQAPQMLSQHMQQMQQHQYYPPQQQQQAGQQRISMQEIQTQPQQIRPSQPQPPPQQQQPQQLQLQQRQGSMQIPQYYQPQPMMQHLQEQQQQQMHLQPPSYHRDPHQYTPEQAHTVQLIPLGSMSQYYYQEPQQPYSHPLYQQSHLSQHQQREDSQLKTYSSDRQAQAMLSSHGDLGPPDTGMGDPASSDLTRVSSTLPHRPLLSPSGIHLNNMGPQHQQLSPSAMWPQMHLPDGRAQPGSPESSGQPKGAFGEQFDAKNKLTCSICLKEFKNLPALNGHMRSHGGMRASPNLKQEEGEKVLPPQPQPPLPPPPPPPPPPQLPPEAESLTPMVMPVSVPVKLLPPKPSSQGFTNSTVAAPSARDKPASSMSDDEMPVLEIPRKHQPSVPKAEEPLKTVQEKKKFRHRPEPLFIPPPPSYNPNPAASYSGATLYQSQLRSPRVLGDHLLLDPTHELPPYTPPPMLSPVRQGSGLFSNVLISGHGPGAHPQLPLTPLTPTPRVLLCRSNSIDGSNVTVTPGPGEQTVDVEPRINIGLRFQAEIPELQDISALAQDTHKATLVWKPWPELENHDLQQRVENLLNLCCSSALPGGGTNSEFALHSLFEAKGDVMVALEMLLLRKPVRLKCHPLANYHYAGSDKWTSLERKLFNKALATYSKDFIFVQKMVKSKTVAQCVEYYYTWKKIMRLGRKHRTRLAEIIDDCVTSEEEEELEEEEEEDPEEDRKSTKEEESEVPKSPEPPPVPVLAPTEGPPLQALGQPSGSFICEMPNCGAVFSSRQALNGHARIHGGTNQVTKARGAIPSGKQKPGGTQSGYCSVKSSPSHSTTSGETDPTTIFPCKECGKVFFKIKSRNAHMKTHRQQEEQQRQKAQKAAFAAEMAATIERTTGPVGAPGLLPLDQLSLIKPIKDVDILDDDVVQQLGGVMEEAEVVDTDLLLDDQDSVLLQGDAEL
HeLa cells
  doubling time: approximately 60 hours
Cyclin D1/CDK6
  in vitro kinase activity of cyclin D1/CDK6: reduced
pRb
  phosphorylated pRb (ppRb) level: marked reduction
